Patent CN111620945A (JIANGSU DISEASE CONTROL AND PREVENTION CENTER JIANGSU …, dated 2020)

B1: FC05 (antibody, V domains shown)
VH: VQLLEQSGAEVKKPGASVRVSCKVSGYTLPEVAMHWVRQAPGKGLEWMGGFDPEDGETIYAQKFQGRVTMTEDTSTDTAYMELSSLRSEDTAVYYCATTTPFSSSFWFDPWGQGTLVTVSS
VL: QSVLTQAPSVSGAPGQKVTISCSGSSSNIGNNYVSWYQQLPGTAPKLLIYDNNKRPSGIPDRFSGSKSGTSATLGITGLQTGDEADYYCGTWDSSLSAVVFGGGTKLTVL
B2: FC08 (antibody, V domains shown)
VH: VQLLQQSGAEVKKPGSSVKVSCKASGGTFSSYAISWVRQAPGQGLEWMGGIIPILGIANYAQKFQGRVTITADKSTSTAYMELSSLRSEDTAVYYCVRERGYSGYGAAYYFDYWGQGTLVTVSS
VL: QSVLTQPPSVSGAPGQRVTISCTGSSSNIGAGYDVHWYQQLPGTAPKLLIYGNSNRPSGVPDRFSGSKSGTSASLAITGLQAEDEADYYCQSYDSSLSGSVFGGGTKLTVL
notes: also called FC08抗体
B3: FC11 (antibody, V domains shown)
VH: EVQLLESGGGVVQPGRSLRLSCAASGFTFSYYGMHWVRQAPGTGLEWVAVISYDGSNEYYADSVKGRFTISRDNSKNTLYLQMNSLRAEDTAVYYCAKAMFLGDSSGLTGLDMDVWGQGTTVTVSS
VL: DIELTQSPGTLSLSPGERATLSCRASQSVSSYLAWYQQKPGQAPRLLIYDASNRATGIPARFSGSGSGTDFTLTISSLEPEDFALYYCQQRGNWPPTFGGGTKLEIK

Tests used:
[1] = molecular target: SARS-CoV-2 Spike蛋白(刺突蛋白) of the isolate BetaCoV/JS03/human/2020, on live virus (SARS-CoV-2, UniProt P0DTC2 14-1273); experiment: cell-based or functional assay
[2] = molecular target: SARS-CoV-2 Spike蛋白(刺突蛋白) of the isolate BetaCoV/JS03/human/2020, on live virus (SARS-CoV-2, UniProt P0DTC2 14-1273); experiment: cell-based or functional assay; remark: listed apart in the source
[3] = molecular target: 重组SARS-CoV-2刺突蛋白胞外区 (extra cellular domain of spike protein, S-ECD) (SARS-CoV-2, UniProt P0DTC2 14-1213); experiment: SPR, Biacore 8K, S-ECD immobilised on a CM5 chip, antibody 125-7.8 nM
[4] = molecular target: 重组SARS-CoV-2刺突蛋白胞外区 (extra cellular domain of spike protein, S-ECD) (SARS-CoV-2, UniProt P0DTC2 14-1213); experiment: as above; remark: listed apart in the source

Binder	IC50(ng/ml), 体外中和实验 (live virus, Vero E6, CPE) [1] [ng/mL]	IC50(ng/ml), 体外中和实验 (live virus, Vero E6, CPE) [2] [ng/mL]	Kd [3] [nM]	Kd [4] [nM]
B1	142	–	–	–
B2	–	325	0.8	–
B3	818	–	–	0.5
